From paper PMC4237735, “Codon optimization and factorial screening for enhanced soluble expression of human ciliary neurotrophic factor in Escherichia coli” (BMC Biotechnology, 2014) come the findings set out here.

In the experiment the target is T1, human ciliary neurotrophic factor receptor alpha (hCNTFRα) (human, UniProt P26992 23-342).
T1 construct: human ciliary neurotrophic factor receptor alpha (hCNTFRα), bought protein; also called hCNTF receptor; source: bought: Sino Biologicals Inc
T1 sequence (looked up): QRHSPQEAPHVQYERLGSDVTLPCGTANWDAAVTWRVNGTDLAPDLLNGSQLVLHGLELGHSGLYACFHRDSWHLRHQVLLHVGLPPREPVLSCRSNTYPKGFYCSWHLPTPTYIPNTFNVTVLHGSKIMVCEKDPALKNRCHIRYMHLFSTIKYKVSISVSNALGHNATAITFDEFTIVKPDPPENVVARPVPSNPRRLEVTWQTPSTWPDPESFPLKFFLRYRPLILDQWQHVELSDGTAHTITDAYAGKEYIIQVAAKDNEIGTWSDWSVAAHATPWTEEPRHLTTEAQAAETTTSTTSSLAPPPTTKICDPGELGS
Kind of experiment: ELISA; 1 μg hCNTFRα in PBS immobilised on Nunc MaxiSorp 96-well plate; blocked with 2% BSA in TBS-T; biotinylated CNTF 0.2 – 3.0 μg added, room temperature 2 h; detected with HRP-conjugated streptavidin and TMB, OD 450 nm. To be noted: both partners purified.

B1: recombinant 6-His-hCNTF (human ciliary neurotrophic factor), biotinylated (ligand, UniProt P26441 1-200, looked up)
chain: MAFTEHSPLTPHRRDLCSRSIWLARKIRSDLTALTESYVKHQGLNKNINLDSADGMPVASTDQWSELTEAERLQENLQAYRTFHVLLARLLEDQQVHFTPTEGDFHQAIHTLLLQVAAFAYQIEELMILLEYKIPRNEADGMPINVGDGGLFEKKLWGLKVLQELSQWTVRSIHDLRFISSHQTGIPARGSHYIANNKKM
modifications: biotin (reacted with a 20-fold molar excess of NHS-PEG4-biotin; sites not stated)
notes: Rhinovirus 3C protease cleavage site between the tag and the insert; No cleavage of the 6-His tag is described; also called biotinylated hCNTF; biotinylated CNTF; source: E. coli Rosetta 2(DE3)pLysS, TBONEX 25°C, purified (Ni-IDA, SEC)
Usually EC50 stands for the midpoint of the concentration-response curve. Read a low EC50 as higher potency in that assay. On to B1, for which the response was half-maximal at 36 nM (EC50).
